The DeepSol protein solubility set

Assay: soluble on expression in E. coli; label from the status in PepcDB or PDB records

Row | Sequence | soluble on expression in E. coli
1 | MGSDKIHHHHHHMIRSLWIAKTGLDAQQTQMDVISNNLANVSTNGFKRGRAVFEDLMYQNIRQPGALSSDQTTLPSGLQLGTGVRPVATERIHTQGNPQQTGNSKDVAIIGQGFFQVAMPDGTTAYTRDGSFQVDQNGQLVTSSGFVIQPAITIPANTTSMTVARDGTVSVTQPGSSNNVQVGQLQLATFMNPAGLESMGENLYVQTDASGAPNTTVPGLNGAGVLQQNYVEASNVNVVEELVSMIQTQRAYEINSKAVQTSDQMLQRLTQMG | not soluble
2 | MSLNRPAPVEISYENMRFLITHNPTNATLNKFTEELKKYGVTTLVRVCDATYDKAPVEKEGIHVLDWPFDDGAPPPNQIVDDWLNLLKTKFREEPGCCVAVHCVAGLGRAPVLVALALIECGMKYEDAVQFIRQKRRGAFNSKQLLYLEKYRPKMRLRFRDTNGEGHHHHHH | soluble
3 | MGHHHHHHSHMGAGLSADRRRSLCAREFRKLGFSNSNPAQDLERVPPGLLALDNMLYFSRNAPSAYSRFVLENSSREDKHECPFARGSIQLTVLLCELLRVGEPCSETAQDFSPMFFGQDQSFHELFCVGIQLLNKTWKEMRATQEDFDKVMQVVREQLARTLALKPTSLELFRTKVNALTYGEVLR | soluble
4 | MCFSPEDRKKTDHLLALDGAKERLKLFKADLLDEGSFELAIDGCETVFHTASPVAITVKTDPQVELINPAVNGTINVLRTCTKVSSVKRVILTSSMAAVLAPETKLGPNDVVDETFFTNPSFAEERKQWYVLSKTLAEDAAWRFAKDNEIDLIVLNPGLVTGPILQPTLNFSVAVIVELMKGKNPFNTTHHRFVDVRDVALAHVKALETPSANGRYIIDGPVVTIKDIENVLREFFPDLCIADRNEDITELNSVTFNVCLDKVKSLGIIEFTPTETSLRDTVLSLKEKCLV | soluble
5 | MPAVQETIRQVREIDVDQYKYGFETKIKTDKAPKGLNEDIIRFISAKKCEPEWMLKWRLQAFRRWLTMQEPDWARIEYPKIDFQELHYYAAPKNHTGPKSLEEVDPELLATYEKLGIPLKEQEILAGVRKQSDPSTFDESVYASGQVAVDAVFDSVSVVTTFKKELARAGVIFCSISEAIIEHPALINQYLGTVVPVGDNYYAALNAAVFTDGSFVYIPKGVRCPMELSTYFRINERNTGQFERTLIIADEDSYVSYLEGCTAPQRDENQLHAAVVELVALKNAEIKYSTVQNWYPGDKEGNGGIYNFVTKRGDCRGDNSKISWTQIETGSAITWKYPSCLLRGDNSRGEFYSIAVANGHQQIDSGTKMIHLGKNTSSRIVSKGISAGFSNNTYRGQVTAHRKAHNARNFTQCDSLLIGNDCGAHTVPYIEAKNATAQFEHEATTSKISDDQLFYVMQRGIPEEEAIALIVNGFVKEVIQKLPMEFAVEAQKLIGISLEGSVG | not soluble
6 | GPLGSNEEANRFANQAKLRVQEAVFYIWSDKTLKYSQMANDEAESFRNTWLLFRSFQQWITLTQTFKEQSRLADQAFLNKMFRKILKAQEHWKH | soluble
7 | MQDRNFDDIAEKFSRNIYGTTKGQLRQAILWQDLDRVLAEMGPQKLRVLDAGGGEGQTAIKMAERGHQVILCDLSAQMIDRAKQAAEAKGVSDNMQFIHCAAQDVASHLETPVDLILFHAVLEWVADPRSVLQTLWSVLRPGGVLSLMFYNAHGLLMHNMVAGNFDYVQAGMPKKKKRTLSPDYPRDPAQVYLWLEEAGWQIMGKTGVRVFHDYLREKYQQRDCYEALLELETRYCRQEPYITLGRYIHVTARKPQSKDKV | not soluble
8 | MGSDKIHHHHHHMKQYLRLRAFKAISFDLDDTLYHNTPYLQLATDKFFAFLNQNYPKTQTLHAQGWLTIKHDLFDLHPELKHDTSAARYAMVHDGLMSLGYKESEASEGAQKSMACFHFYRSDFTLDDKVLNLLKQLAESVTLVGISNGNVDASRIGLSESLAFVQHPGHGVKMKPHGDMFELACQRLNISPAELLHVGDHQMADVSGARRAGCQSVWFNPEKHPLTRRTGSILPHVELDDLNKLLNLV | not soluble
9 | MGSDKIHHHHHHLDLAPEDYYGAGNFWKEASQPKAFMLGLHAQLRSYYDMFYTLGELRGGTQRVGTSSLNTSLNYADIRSQNISEDIPGISNWNGLYSPIMQVNHFIQEVENGCTFLDDATRSRYLGQAYGMRALYYFMLYRTFGGVPLITKVDILDGKPSADKFYVERATPEATMEFIKADINKSENYFGNNTSFDAYDWSRYATLMLKAEIYMWAAKVSITGFTATGATDLQTAKTALSGIIGHFELMDNFASIFSCDNKKNTEIIFAMPFIEGEASNDGGRFLYQDAVFLGQAYGRNGKVIEKDTLNLKGTGGVFRDEYTEDFWKTFKEGDSRRDATFMEYYMKNDNGTLSEFGCVMKKRIGTINSNDNRIYISDIPVYRYADALLMMAEIENGLNNPCASYINEVRKRAYGDTFEENKYTEGSYAENELAILQERDKEFVSEGKRWFDVLRMHDASGRSLVFSANANYPGTNPILGTEEAYKMLWPVNIGTLNVNPLLTQTPGYGKK | not soluble
10 | MGSDKIHHHHHHETTSTQTVDEQAVFNDTQSAMLAVNGLHKLMWTGDLSSSAFYGGYDMLMIWYEVMGDDLVYTYSNAQFQKQAQWSSHRNATIGSATHFYRLLQYFISNSSMIIDNIDAAEGLESERNYIKGQAHFYRAFAYFTMVQMYGGRYKAEGDNTQLGVVIRNDNSTEPRARASVEEVYTQINEDIDLAIQLLGATEEKRTNKSHIDLHVARGLKARILLTQGKWLEAAEMAKLVVDLSGAKLQDDTYTTLNDRFSDQSNTEWLWGSNPLLQQAPNLTHFHGYMSNEIISYNGNTPRAIYNKLYDKISDTDVRKGIWFPRATDPNTLPRPIRAECNSKAYANYMANKFIVSDPTTKGGRDVPFMRLPEMMLIMAEGYARAGEPGKAAQALYPLASHRDPEYTLSTKTGENLIEEVMTQRRIELWGEGFRWFDLKRLNMDLDRGPAPRPEVFPNGLIEYWNKDAMPKVVDPEASNYNMYGDGTVTGNGNRYRPAGHRDWQWAIPDKETQLNPLCEPNP | not soluble
11 | MGHHHHHHSHMVTHSKFPAAGMSRPLDTSLRLKTFSSKSEYQLVVNAVRKLQESGFYWSAVTGGEANLLLSAEPAGTFLIRDSSDQRHFFALSVKTQSGTKNLRIQCEGGSFSLQSDPRSTQPVPRFDCVLKLVYHYMPPPGAPSFPSPPTEPSSEVPEQPSAQPLPGSPPRRAYYIYSGGEKIPLVLSRPLSSNVATLQHLCRKTVNGHLDSYEKVTQLPGPIREFLDQYDAPL | not soluble
12 | MGSDKIHHHHHHMLRGGAPAVRMNAMKIISVNVGQPTALQVGQRTAVSGIRKHPVPGRVQVGEKGLEGDHVLNRRYHGGPDQAVYVYTREDYDHWTELLGRALEPGAFGENVLISGAESAEVRVGERFLLGAVEIEVTAPRLPCSTLGARMEDAGFVKRFKAARRPGFYARVLQSGDIGRGDPVTRTPAPDGAPTIGELFDADFAKSHDPAELRAWLTFPLGKRQRKEVEKWLAKAEG | not soluble
13 | MKDNRITVTDIPNTNLKKITLKNDFLEVVLLNYGARLHQLLMPNKNNHWENILLSYDSYQDVLKDQSFFGATVGPVAGRIRNGHWQNGILEQNSDGHHIHGGSKGWSFQYWTVEPFEKKDIIGVAFHLTDTISGYPGPIEATITYQLEDNHLRMISTGRSKQETLFNPTNHAYFNLSGDGKLDILSHLLSLNCQGMLELDDNKLPTGRILPASELSIRFNELTPIETILQRYPTGLDDVFSLVGSDLRQPQLCLQEPTSGRKMTIATTNQSMVLFSTTGFEAPFSINGQAMHSNYGLAIEPQEYPDIVHHPQWGSILLPANKKQTYQTVYQFNLL | not soluble
14 | MGSDKIHHHHHHMVNPKLPVIWYGGDYYPEQWDEETFERDIRMFKEAGINVVTIGVFSWSLIQPDENTYDFSFFEKVMDRLYKEGIYVCLATPTSAPPHWMTQKYPEILFTDVNGVKREKGGRQNFCPNSEKYRYFARNIAEKLAEHFKDHPALVLWHVNNEYLNYCYCDICRGKFQNWLKEKYGTLDELNRRWNTRFWSQTFTAWEEIPVPTTRSVLVWRKDRYQSVLPELYLDYRRFMTQSMLECFLEEYRAIKKHTPDIPVTTNLIAATFKEWNYFEWAKHMDVAAWDNYPGYKEDFSVISLRHSLIRCLKEGKPFVLMEQSPSQACWRWYNPQKRPGEMRLWSYHALAHGAETLMFFQLRQSKGGVEKFHGAVITHVDSPNTRVFQEVKRVGEEIKSLSDILDARVVSQTALLFDWESWWAMEDTLTPSVDFRYLNEVQKYFKALVKTGLGVDVVGKDQNFERYRVLVAPVLYMVGKELAQKLKDYVSNGGILILTTMSGIVDEDDQVVLGGYPGYLRDLMGGYVEEIDALPPEEKNEILMFGKRYECSLVFDYIKTTTAEVLGRFGRDYYMNEPAVLRNNYGKGWVYYVGSSTSFDLVWDLVKFMEREHNLRAEIAPPDDVEVIKKIKGEKIFYFLFNHSHELQIVDLPEGMFRDLIKGNLYEKKVKLQPLDVLILLKE | not soluble
15 | MRFTVTSRGDDVSNTLQQKIKRYLLDFGLTLDEQEPDIVITVGGDGTLLHAFHRYTSRLEDTAFVGIHTGHLGFYADWVPDEVEKLVIHIAKTPYQIVEYPLLEVVVRHTDESESKRLLALNECTVKSQEGSLVSNVEIKGDVFEVFRGDGLCISTPSGSTAYNKALGGAILHPSLASIQISEMASINNRVYRTIGSPLVLPQHHTCLIKPLNQVELQVTIDHFTLAYKRVKSIQCRVAEEKIRFARFRPFPFWKRVKESFIGDSLEHHHHHH | soluble
16 | SLHRLNKKAGDYGEKAAEIYLKKSGYTILNRNFRCFLGEVDIIAKNKDYITFVEVKSRWSDTYGLPCEAVNYRKKLKIYRTAKYYIASKSLINYNFRFDVIEVILNHQNDSYDLKFIENAFQI | soluble
17 | PDPNRFDRDRLFNAVSRGVPEDLAGLPEYLSKTSKYLTDSEYTEGSTGKTCLMKAVLNLKDGVNACILPLLQIDRDSGNPQPLVNAQCTDDYYRGHSALHIAIEKRSLQCVKLLVENGANVHARACGRFFQKGQGTCFYFGELPLSLAACTKQWDVVSYLLENPHQPASLQATDSQGNTVLHALVMISDNSAENIALVTSMYDGLLQAGARLCPTVQLEDIRNLQDLTPLKLAAKEGKIEIFRHILQREFS | soluble
18 | MTAHFPFDNSYVALPPNFFARVAPTPVAAPRLIKLNRPLAVQLGLDPDLLETPEGAEILSGNQMPETAASIAMAYAGHQFGNFVPQLGDGRAILLGEVVDRNGVRRDIQLKGAGRTPFSRMGDGRAALGPVLREYIVSEAMAALGIPTTRSLAAVLTGETVLRDPIQPGAVLTRVASSHIRVGTFQYFAARGDLASVRALADHAIARHYPEAAQAPSPYLALLEGVIGRQAELVASWMMVGFIHGVMNTDNCSVAGETIDYGPCAFMDTFDPKTVYSSIDQFGRYAYGNQPPIALWNLTRLAECLVRLLADDDDKGIEIAQTALGGFAEQFNAAYLAKLAAKLGLFTSQPDDQQLSQEFLTALAKGEADFTLAFRRLSDAAVDPSDLGEVRALFADPAAFDEWAPRWRARIATEPQDATTRQAAMRRVNPAYIPRNHRIEAVIRAAVDRDDFAPFEEILTVLANPFEEKAEFARYAEPPQPHEQVLETFCGTAAALEHHHHHH | soluble
19 | MGSDKIHHHHHHMKDILVIGATGKQGNAVVKQLLEDGWYVSALTRNKNNRKLSDIGHPHLSIVEGDLSDNVSLQSAMKGKYGLYSIQPIVKDDVSEELRQGMKIIEIAEQENIQHIVYSTAGGVNRNRTGPHFEVLAKIENRLMESNINATVIKPSFFMDNFLRIAKVEDERITLPEFINPNIKFTMISSIDIAKIASYIFAHPQSFTHQSIEIGSDEVTLSEAATIFSEVTGKSTVIEGEFVSGVAEKQWLEEKGYEVDFELMAEINPTRLSLSDWLKVQNYNK | not soluble
